The record followed here is paper PMC11527256, “Linkage-specific ubiquitin binding interfaces modulate the activity of the chlamydial deubiquitinase Cdu1 towards poly-ubiquitin substrates” (PLOS Pathogens, 2024).

This assay addresses T1, ubiquitin propargylamide (UB-PA) (UniProt P0CG48 1-75, C-terminal propargylamide).
T1 construct: also called ubiquitin-propargylamide suicide probe
The experiment in a line: NMR chemical shift perturbation of the covalent adduct against the apo protein. As to conditions: both partners purified.

B1: Cdu1(130-401), wildtype (enzyme)
chain: PVKTQEDLLPLVPEQVFVEMYEDMARRQTIEALVPAWDSDIIFKCLCYFHTLYPGLIPLETFPPATIFNFKQKIISILEDKKAVLRGEPIKGPLPICCSKENYRRHLQRTTLLPVFMWYHPTPKTLSDTMQTMKQLAIKGSVGASHWLLVIVDIQARRLVYFDSLYNYVMPPENMKKELQSFAQQLDQVYPAYDSKKFSVKIAAKEVIQRGSGSSCGAWCCQFLHWYLKDPLTDALNDLPVDSVERHENLASFVQACEAAVQDLPELSWPEA
notes: source: E. coli Rosetta 2(DE3), purified (Ni-NTA, 3C cleavage, SEC); not shown: 6xHis, N-terminal, cleaved
For B1, the binding result is listed as “binds”.
